The target in this experiment is HA-DHX15, full-length recombinant protein (murine, UniProt O35286 1-795). The experiment in a line: pull-down.
HA-DHX15, full-length recombinant protein, sequence (O35286 whole entry): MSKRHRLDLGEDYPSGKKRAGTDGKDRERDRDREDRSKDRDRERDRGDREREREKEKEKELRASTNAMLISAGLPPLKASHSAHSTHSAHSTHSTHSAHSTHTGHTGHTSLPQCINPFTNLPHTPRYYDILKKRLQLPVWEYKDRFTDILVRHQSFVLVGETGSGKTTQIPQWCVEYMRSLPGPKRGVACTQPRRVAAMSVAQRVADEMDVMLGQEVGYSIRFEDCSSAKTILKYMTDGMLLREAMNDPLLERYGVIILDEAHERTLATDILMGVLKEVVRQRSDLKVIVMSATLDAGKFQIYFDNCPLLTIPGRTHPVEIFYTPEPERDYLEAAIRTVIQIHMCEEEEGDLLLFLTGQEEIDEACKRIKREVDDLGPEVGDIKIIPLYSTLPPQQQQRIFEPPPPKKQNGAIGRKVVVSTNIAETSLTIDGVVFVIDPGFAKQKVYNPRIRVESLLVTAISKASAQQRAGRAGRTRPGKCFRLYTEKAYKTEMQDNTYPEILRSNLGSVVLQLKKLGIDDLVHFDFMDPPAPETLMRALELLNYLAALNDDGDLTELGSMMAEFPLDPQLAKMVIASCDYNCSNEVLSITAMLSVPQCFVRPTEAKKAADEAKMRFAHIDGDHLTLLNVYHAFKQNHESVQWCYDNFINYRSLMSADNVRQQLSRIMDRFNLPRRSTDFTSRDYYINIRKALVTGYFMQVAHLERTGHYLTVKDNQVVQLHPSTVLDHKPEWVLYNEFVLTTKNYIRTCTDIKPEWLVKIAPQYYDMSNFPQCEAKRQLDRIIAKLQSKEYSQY

B1: Myc-MAVS, full-length recombinant protein (natural protein, murine, UniProt Q8VCF0 1-503, looked up)
chain: MTFAEDKTYKYIRDNHSKFCCVDVLEILPYLSCLTASDQDRLRASYRQIGNRDTLWGLFNNLQRRPGWVEVFIRALQICELPGLADQVTRVYQSYLPPGTSLRSLEPLQLPDFPAAVSGPSAFAPGHNIPDHGLRETPSCPKPVQDTQPPESPVENSEQLLQTNSGAVARMSGGSLIPSPNQQALSPQPSREHQEQEPELGGAHAANVASVPIATYGPVSPTVSFQPLPRTALRTNLLSGVTVSALSADTSLSSSSTGSAFAKGAGDQAKAATCFSTTLTNSVTTSSVPSPRLVPVKTMSSKLPLSSKSTAAMTSTVLTNTAPSKLPSNSVYAGTVPSRVPASVAKAPANTIPPERNSKQAKETPEGPATKVTTGGNQTGPNSSIRSLHSGPEMSKPGVLVSQLDEPFSACSVDLAISPSSSLVSEPNHGPEENEYSSFRIQVDESPSADLLGSPEPLATQQPQEEEEHCASSMPWAKWLGATSALLAVFLAVMLYRSRRLAQ
B1: the binding result is “binds”.

For the origin of these results see paper PMC4108507 (Journal of immunology (Baltimore, Md. : 1950), 2014).
